Results reported in article PMC7788595.

Molecular target: sfGFP^204SCO (Aequorea victoria) [GFP: P42212]
Experiment: FRET or BRET; steady state emission of the covalently SPAAC-linked GFVen^204 dimer, excitation at 450 nm; relative efficiency from donor and acceptor intensities (Equation 3) after deconvolution

With “Venus^204azF (from UniProt P42212 2-238) (natural protein)” the FRET efficiency allowing for variation in quantum yield was 85 to 91% and the relative FRET efficiency was 87%.
